This series is described as follows: yeast display, Sf9 membrane polyspecificity reagent, FACS + sequencing; frameworks hold sequencing errors. A digest of the protocol: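 Synthetic nanobody libraries on Saccharomyces cerevisiae BJ5465 were galactose-induced for 36–48 hours, stained 1 hour at 4 °C with 10% biotinylated, detergent-solubilized Sf9 membrane reagent and enriched on streptavidin microbeads. FACS then separated cells into low and high (top ~1%) gates by anti-HA (expression) and streptavidin (reagent binding) fluorescence. Genes were colony-PCR amplified, MiSeq 2 × 250 sequenced and CDR-length filtered. A clone's polyreactivity label is that of its gate of origin.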
As for “QVQLVESVGGLVQAGGSLRLSCAASGFTFDENAMGWYSQAPGINYSGASTYYADSVKGRFTLSRDNAKNTVYLQMNSLKQEDTAVNYCAAEVVAQLNYWGPGTQVTVSS”, the “polyreactivity (PSR sort gate)” value was “low polyreactivity”.
As to “QVQLVESVGGLVQAGGSLRLSCAASGFTFFHYAMGWYRQAPGKERELVAAINTRGSRTYYADSVKGRFTISRDNAKNTVYLQMNSLKPEDTAVYYCAADSVQVYAWQYYYWGQGTQVTVSS”, the “polyreactivity (PSR sort gate)” value is recorded as “high polyreactivity”.
For the sequence “QVQLVESVGGLVQAGGSLRLSCAASGFTFKYYAMGWYRQAPGKERELVAAITGTGGSTYYADSVKGRFTISRDTAKNTVYLLMNSLKPEDTAVYYCNAGSARGYVPYDSFAYDYWGQGTQVTVSS”, the “polyreactivity (PSR sort gate)” value is reported as “low polyreactivity”.
For “QVQLVESVGGLVQAGGSLRLSCAASGFTFRANAMGWYRQAPGKERELVAAINWSGTSTYYADSVKGRFTISRDNAKNTVYLQMNSLKPEDTAVYYCAVLFYGAKYDYWGQGTQVTVSS” the value was “low polyreactivity”.
For “QVQLVESVGGLVQAGGSLRLSCAASGFTFRYYAMGSYRQAPGKERELVAAISRTGRTYYADSVKGRFTISRDNAKNTVYLQMNSLKPEDTAVYYCAADPPGYVFGKRYYWGHGTQVTVSS” the value was “high polyreactivity”; for “QVQLVESVGGLVQAGGSLRLSCAASGFTFSWSTKGWYRQAHAKERELVATISWSGSRTYYADSVKGRFTISRDNAKNTVYLEINSLKPEDTAVYYCNVAPHRQVFYTGQYDYWGQGTQVTVSS”, “high polyreactivity”; for “QVQLVESVGGLVQAGGSLRLSCAASGFTFYKNAMGWYRQATGKERELVAPITKSGGRTYYADSVKGRFTISRDYAKNTVYLQMNCLKPEDNAVYYCAADISPFGRQPCVIRYSWGQGTQVTVSS”, “high polyreactivity”.
In the case of “QVQLVESVGGLVQAGGSLRLSCAASGGIFQPNAMGWYRQAPGKERELVATISQRGGSPYYSDSVKGRFTISRDNAKNTVYLQMNSVKPEDTAVYYCAAEVYYYYDAIYIARYEYWGQGTQVTVSS”, the “polyreactivity (PSR sort gate)” value was “low polyreactivity”.
The entry for “QVQLVESVGGLVQAGGSLRLSCAASGGTFLFYGMGWYRQAPGKERELVAVITWSGGSTYYADSVKGRFTISRDNAKNTVYLQMKSLKPEDTAVYYCNAANTGSPDYQSIGYNFNYWGQGTQVTVSS” is “low polyreactivity”.
“QVQLVESVGGLVQAGGSLRLSCAASGIFRQNAMGWYRQAPGKERELVAGISQSGGSTYYADSVKGRFTISRDNAKNTVYLQMNSLKPEDTAVYYCAVVSIWGYDYWGQGTQVTVSS”: the “polyreactivity (PSR sort gate)” value is on record as “low polyreactivity”.
The entry for “QVQLVESVGGLVQAGGSLRLSCAASGITFDDYAMGWYRQAPGKERELVAVISSSGGSTYYADSVKGRFTISRDNAKNTVYLQMNSLKPEDTAVYYCAARFEVWYTRRVLLGEYDYWGQGTQVTVSS” is “low polyreactivity”; for “QVQLVESVGGLVQAGGSLRLSCAASGLIFHRYAMGWYRQAPGKERELVAAISSSGGITYYADSVKGRFTISRDNAKNTVYLQMNSLKPVDTAVYYCPADTGKGSPFSAGLGRAGDYWGHGTQVTVSS” it is “low polyreactivity”.
On to “QVQLVESVGGLVQAGGSLRLSCAASGNTFKYYAMGWYRQAPGKERELVAGITWTGGRTNYADSVKGRFTISRDNAKNTVYLQMNSLKPEDTAVYYCAADYWWYTGYDYWGQGTQVTVSS”, for which the “polyreactivity (PSR sort gate)” value is reported as “high polyreactivity”.
Consider “QVQLVESVGGLVQAGGSLRLSCAASGNTLVYYDMGWYRQAPGKERELVAAISWSTGSTYYADSVKGRFTISRDNAKNTVYLQMNSLKPEDTAVYYCAAEPELDEYEHDYWGQGTQVTVSS”, for which the “polyreactivity (PSR sort gate)” value is listed as “low polyreactivity”.
For the sequence “QVQLVESVGGLVQAGGSLRLSCAASGRIFGGYALGWYRQAPGKERELVAAITSSGSTNYADSVKGRFTISRDNAMNTVYLQMNSLKQEDTAVYYCANDFKTVYYWWGMDYWGQGTQVTVSS”, the “polyreactivity (PSR sort gate)” value was “low polyreactivity”.
With “QVQLVESVGGLVQAGGSLRLSCAASGRIFGPYVMGWYRQAPGKERELVAAISTSGTSTYYADSVKGRFTISRDNAKNTDYLPMNSLKPEDTAVYYCAIRSGARHRLMDYWGQGTQVTVSS”, the “polyreactivity (PSR sort gate)” value is reported as “low polyreactivity”.
The entry for “QVQLVESVGGLVQAGGSLRLSCAASGRIFLYYAIGWYRQAPGKERELVAVISWSGGSTYYADSVKGRFTISRDNAKNTVYLQMNILKPEDTAVYYCAADVVPTWYGYNYDYWGQGTQVTVSS” is “high polyreactivity”; for “QVQLVESVGGLVQAGGSLRLSCAASGRIFPAYAMGWYRQAPGKERELVASIRRGGITYADSVKGRFTISRDNAKNTVYLQMKSLKPEDTAVYYCNADYRGWGYHMDYWGQGTQVTVSS” it is “low polyreactivity”.
For “QVQLVESVGGLVQAGGSLRLSCAASGRIFYLYAMGWYRQEPGKERELVAVISYGGDRTSYADSVKGRFTISRDNAKNTVYLQMNSLKPEDTAVYYCAARPFYRGYYYWGQGTQVTVSS” the value was “high polyreactivity”; for “QVQLVESVGGLVQAGGSLRLSCAASGRMFAKYAMGWYRQAPGKERELVPISSSVGRTYYADSVKGRFTISRDNAKNTVSLHMHSLKPEDTAVYYCNAKPRWYVPYDYSGQGTQVTVSS”, “high polyreactivity”.
As for “QVQLVESVGGLVQAGGSLRLSCAASGRPSNRYAMGWYRQAPGKERELVAAISGRGGSTYYADSVKGRFTISRDNAKNTVYLQMNSLKPEDTAVYYCAKQWYVAKISYDYWGQGTQVTVSS”, the “polyreactivity (PSR sort gate)” value is recorded as “high polyreactivity”.
For “QVQLVESVGGLVQAGGSLRLSCAASGRRTIRYNAMGWYRQAPGKEREFVASISRSGGSTYYADSVKGRFTISRDNAKNTVYLQMNSLKPEDTAVYYCAAAASHLVAYGWGYEYYYWGQGTQVTVSS”, the “polyreactivity (PSR sort gate)” value was “high polyreactivity”.
For “QVQLVESVGGLVQAGGSLRLSCAASGRTFAPNFMGWYRQAPGKERELVAAITYSSASTYYADSVKGRFTISRDNAKNTVYLQMNSLKPEDTAVYYCAARDRYYFGGMYYWGQGTQVTVSS” the value was “low polyreactivity”; for “QVQLVESVGGLVQAGGSLRLSCAASGRTFTGNAMGWYRQAPGKERELVAAISQRGGRTNYADSVKGRFTISRDNAKNTVYLQMNSLKPEDTAVYYCAADQSYPKRLPSFEYWGQGTQVTVSS”, “low polyreactivity”.
The entry for “QVQLVESVGGLVQAGGSLRLSCAASGRTFTTNAMGWYRQAPGKERELVAAITIGDDTYYADSVKGRFTISRDNAKNTVYLQMNSLKPEDTAVYYCAADYKRVPFVTQYVSKDGYWGQGTQVTVSS” is “low polyreactivity”; for “QVQLVESVGGLVQAGGSLRLSCAASGRTFTYNSMGSYRQAPGKERELVAAITRRGGSTYYADSVKGRFTISRDNAKNTVYLQMNSLKPEDTAVYYCAATGYLRTYDYWGQGTQVTVSS” it is “high polyreactivity”; for “QVQLVESVGGLVQAGGSLRLSCAASGRTFVGNTMGWYRQAPGKERELVAAISGSGSRTYYADSVKGRFTISRDNAKNTVYLQMNSLKPEDTGVYYCASQGNYWGQGTQVTVSS” it is “high polyreactivity”.
For “QVQLVESVGGLVQAGGSLRLSCAASGRTLGGNAMGWYRQAPGKERELVAAITNSASTYADSVKGRFTISRDNAKNTVYLQMNSLKPEDTAVYYCNAPDPSDQHGDYWGQGTQVTVSS” the value was “low polyreactivity”; for “QVQLVESVGGLVQAGGSLRLSCAASGSIFTENAMGWYRQAPGKERELVATITITGSTNYADSVKGRFTISRDNAKNTFYLQMNSLKPEDTEVYYCNADLYIAFSASAYDYWGQGTQVTVSS”, “low polyreactivity”; for “QVQLVESVGGLVQAGGSLRLSCAASGSIFTWYAMGWYRQAPRKERELVAAITRGGSTYADSVKGRFTISRDNAKNTVYLQMNSLKPEDTAVYYCNAVYGVYDFNYWGQGTQVTVSS”, “low polyreactivity”.
Take “QVQLVESVGGLVQAGGSLRLSCAASGSISGYYAMGWYRQAPGKERELVASIRYTGARTYYADSVKGRFTISRDNAKNTVYLQMHSLKPEDTAVYYCAADVNRDRVWGGDYWGQGTQVTVSS”: the “polyreactivity (PSR sort gate)” value was “low polyreactivity”.
On to “QVQLVESVGGLVQAGGSLRLSCAASGSITVANAMGWYSQAPGKESELVAAITDSGDDTYYADSVKGRFTNSRDNAKNTVYLLMNSLKAEDTAVYYCAVEAWSVPPYDYWGQGTQVTVSS”, for which the “polyreactivity (PSR sort gate)” value is given as “low polyreactivity”.
The entry for “QVQLVESVGGLVQAGGSLRLSCAASGSTFAFYDMGWYRQAPGKERELVAAISQSDGDTYYADSVKGRFTISRDNAKNTVYLQMNSLKPEDTAVYYCAAETAHTPEYERGSDYWGQGTQVTVSS” is “low polyreactivity”; for “QVQLVESVGGLVQAGGSLRLSCAASGSTFGYNAMGWYRHAPGKEMELVAAITRSSSRTYYADYVKGRFTISRDNAKNTVYLQMNSLKPEDTAVYYCAKVRYVVGSIFNYSYNYWGQGTQVTVSS” it is “high polyreactivity”; for “QVQLVESVGGLVQAGGSLRLSCAASGSTFKGYYMGWYRQAPGKERELVAAIDSGGSTYYADSVKGRFTISRDNAKNTVYLQMNSLNPVDTAVYYCAATGQDTYGLDVVDEYDYWGQGTKVTVSS” it is “low polyreactivity”.
For “QVQLVESVGGLVQAGGSLRLSCAASGSTFYIYAMGWYRQAPGKERELVADINNSDSTYYADSVKGRFTISRDNAKITVYLQMYSLKPEDTAVYYCAAYDYYIGAYSYGGSDYDYWGQGTQVTVSS” the value was “low polyreactivity”; for “QVQLVESVGGLVQAGGSLRLSCAASGSTLDGNPMGWYRQAPGKERELVAAISRSGTSTYYADSVKGRFTISRDNAKNTVYLQMNSLKPEDTAVYYCNKVGYIAFDYWGQGTQVTVSS”, “low polyreactivity”; for “QVQLVESVGGLVQAGGSLRLSCAASVRTFYNYSMGWYRQAPGKERELVAGISRRGGSTYYADSVKGRFTISRDNAKNTVYLQMNSLKPEDTAVYYCIEDLVRPGYYRYDYRGQGTQVTVSS”, “high polyreactivity”.
For “QVQLVESVGGLVQAGGSLRLSCAASVYAMGWYRPAPGKERELVAAITDSGSTNYADSVKGRFTISRDNAKNTVYLQMNSLKPEDNAVYYCNADPYYATGSWARLPLYQYDYWGPGTQVTVSS” the value was “low polyreactivity”; for “QVQLVESVGGLVQAGGSLRLSCAASYAMAWYRQAPGKERELVATITRTDRTNYADSVKGRFTISRDNAMNTVYFQMNSLKPEDTAVYDCNKVEWSAPGDSRKYGYWGQGTQVTVSS”, “low polyreactivity”.
Turning to “QVQLVESVGGLVQAGGSLRLSCAATGRIFHYNAMGWYRQAPGKERELVAAITSSGGTTYYADSVKGRFTISRDIAKNTVYLQMNTLKPEDTAVYYCNAVTSARVNYRGQGTQVTVSS”, the “polyreactivity (PSR sort gate)” value is “high polyreactivity”.

The values are drawn from the nanobody polyreactivity screen of Harvey et al. (2022).
